Reference: US20190382483A1

What was measured:
[1] = target: hSIRPa-His recombinant protein (Sino Biologicals, reference 11612-H08H) (human) (UniProt P78324); assay: Biacore (SPR)
[2] = target: Recombinant hSIRPg-His (Sino Biologicals, reference 11828-H08H) (human) (UniProt Q9P1W8); assay: Blitz (BLI); SIRPg pre-incubated with Kwar23; settings: Fc fusion
[3] = target: Recombinant hSIRPg-His (Sino Biologicals, reference 11828-H08H) (human) (UniProt Q9P1W8); assay: Blitz (BLI); no antibody; settings: Fc fusion
[4] = target: Recombinant hSIRPg-His (Sino Biologicals, reference 11828-H08H) (human) (UniProt Q9P1W8); assay: Blitz (BLI); SIRPg pre-incubated with SIRP29; settings: Fc fusion

Chain of Recombinant hSIRPg-His (Sino Biologicals, reference 11828-H08H) (human) (Q9P1W8 29-360): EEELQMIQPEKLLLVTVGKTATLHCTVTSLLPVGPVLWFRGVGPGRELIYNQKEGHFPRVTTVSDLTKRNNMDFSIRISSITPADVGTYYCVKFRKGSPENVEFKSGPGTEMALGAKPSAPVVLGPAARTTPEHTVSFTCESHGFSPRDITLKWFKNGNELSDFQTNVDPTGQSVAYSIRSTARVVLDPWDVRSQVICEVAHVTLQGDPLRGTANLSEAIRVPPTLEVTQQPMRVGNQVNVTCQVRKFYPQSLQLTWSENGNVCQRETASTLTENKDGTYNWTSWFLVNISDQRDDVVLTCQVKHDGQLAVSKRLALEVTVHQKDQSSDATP
Chain of human CD47Fc (Sino Biologicals, reference 12283-H02H) (Q08722 19-139): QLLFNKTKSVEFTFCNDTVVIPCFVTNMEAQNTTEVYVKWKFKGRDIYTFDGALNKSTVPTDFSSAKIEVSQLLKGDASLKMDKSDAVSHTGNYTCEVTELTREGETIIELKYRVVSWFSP
Chain of hSIRPa-His recombinant protein (Sino Biologicals, reference 11612-H08H) (human) (P78324 31-370): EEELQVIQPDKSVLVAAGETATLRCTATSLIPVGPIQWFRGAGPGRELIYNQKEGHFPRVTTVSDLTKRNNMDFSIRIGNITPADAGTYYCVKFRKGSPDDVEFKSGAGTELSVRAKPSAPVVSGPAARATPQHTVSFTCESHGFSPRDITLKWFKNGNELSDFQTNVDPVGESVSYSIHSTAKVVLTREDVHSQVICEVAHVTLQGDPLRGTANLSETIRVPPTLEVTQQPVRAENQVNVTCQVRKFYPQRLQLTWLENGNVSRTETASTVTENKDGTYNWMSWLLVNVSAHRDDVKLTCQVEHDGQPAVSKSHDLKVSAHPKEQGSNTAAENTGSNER

Substance | Kd [1] [nM] | Kd [2] [nM] | Kd [3] [nM] | Kd [4] [nM]
Kwar23 | 0.367 |  |  | 
human CD47Fc (Sino Biologicals, reference 12283-H02H) (from UniProt Q08722 19-139) |  | 288000 | 597 | 2570
